Patent publication US10918730B2, “Pegylated bioactive peptides and uses thereof” (GRIFFON PHARMACEUTICALS INC., priority 2016, dated 2021)
One block for each compound: values may come before it. Non-standard residues stand in square brackets, D forms with d. No end group written: not given here. hArg = N=C(N)NCCCC[C@H](N)C(=O)O; Orn = NCCC[C@H](N)C(=O)O

What was measured:
Growth Hormone secretion = assay: GH release kinetics after subcutaneous injection in Sprague-Dawley rats; type: in vivo; details: female rats, single subcutaneous dose 0.04 mg/kg, FIG. 1; for GH AUC (0-90 min): plasma GH by ELISA
Description: Protocol: Sprague-Dawley rats (female, weighing from 250 to 300 g) were obtained from Charles River Inc. Animals were used according to a protocol of the Animal Care Committee along with the principles of the Guide for the Care and Use of Experimental Animals of the Canadian Council on Animal Care. The animals were maintained on standard laboratory chow under a 12:12 light:dark cycle. They were kept in groups of 4 rats per cage. The animals were anesthetized with isoflurane 2.5%. A mid-section opening was made in the neck to expose the carotid artery. The carotid artery was canulated with polypropylene tubing (PE-50) to allow blood withdrawal. After surgical preparation, rats received a subcutaneous injection of GHRH analog (10-100 μg/kg) dissolved in 20 mM AcONa+5% mannitol at pH 5). Blood samples (400 μL/time point) were collected from 2-4 animals per group. […] Blood was collected into microtainer tubes containing K3EDTA, mixed and immediately centrifuged at 13,000 RPM in a desktop centrifuge for 2 minutes. The plasma was collected and placed into a screw cap Eppendorf™ tube and quickly frozen in liquid nitrogen. The samples were then kept at −80° C. until assayed. Determination of GH levels was performed as described below.
Determination of GH levels in plasma samples: Rat and mouse plasma samples were vortexed carefully and centrifuged at 9,000 RPM for 2 min at 4° C. […] The remainder of the procedure was performed according to the manufacturers instructions, and the data obtained were analyzed using GraphPad Prism™ software. […] Growth hormone levels were determined in timed-aliquots of blood and are depicted in FIG. 1. […]
The N-terminal part of the GHRH peptide is known to be buried in the extracellular loops and transmembrane domains of the GHRH receptor, and thus almost all of the amino acids in the N-terminal domain participate in high affinity binding of the GHRH peptide to the receptor. […] Briefly, peptides (0.04 mg/kg) were subcutaneously injected in female rats and growth hormone levels were determined in timed aliquots of blood drawn from the animals.

human GHRH receptor = target: T1, human GHRH receptor (Homo sapiens, UniProt Q02643); assay: Hit Hunter (DiscoveRx) cAMP agonist assay in cells expressing GHRH receptor; type: cell-based; details: for potency in words: Table 2 experiment, compared to native peptide; for in vitro biological activity in words: longer PEG chains at the 9th position
T1 sequence (Q02643 23-423): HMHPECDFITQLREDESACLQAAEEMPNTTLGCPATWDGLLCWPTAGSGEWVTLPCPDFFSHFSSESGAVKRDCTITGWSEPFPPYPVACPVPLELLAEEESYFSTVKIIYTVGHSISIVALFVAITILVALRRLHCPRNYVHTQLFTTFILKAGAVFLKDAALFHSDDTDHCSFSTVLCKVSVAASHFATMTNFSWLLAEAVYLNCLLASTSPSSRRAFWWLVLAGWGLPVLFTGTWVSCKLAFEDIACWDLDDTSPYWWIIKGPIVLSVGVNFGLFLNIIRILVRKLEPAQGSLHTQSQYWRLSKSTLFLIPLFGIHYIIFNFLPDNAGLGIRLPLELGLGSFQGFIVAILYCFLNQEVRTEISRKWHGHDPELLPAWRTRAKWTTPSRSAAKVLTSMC
Description: For agonist determination, cells were incubated with sample to induce response. Media was aspirated from cells and replaced with 15 μL 2:1 HBSS/10 mM Hepes:cAMP XS+ Ab reagent. […] Vehicle concentration was 1%. […] Microplates were read following signal generation with a PerkinElmer Envision™ instrument for chemiluminescent signal detection. Compound activity was analyzed using CBIS data analysis suite (ChemInnovation, CA).

Compound: YaDAIFTAC(Peg-2K)YROVLAQLSAROALQDILSKN-NH2 (Y[dA]DAIFTAC(PEG 2 kDa)YR[Orn]VLAQLSAR[Orn]ALQDILSKN-NH2) [Analog 6 (C9), Cys9 conjugated to about 2 kDa PEG]
GH AUC (0-90 min) (Growth Hormone secretion): 29075 ng/ml/90 min

Compound: YaDAIFTASYROVLAQLSAROALQDILC(Peg-2K)KN-NH2 (Y[dA]DAIFTASYR[Orn]VLAQLSAR[Orn]ALQDILC(PEG 2 kDa)KN-NH2) [Analog 1 (C28), GHRH analog with Cys28 conjugated to about 2 kDa PEG]
stimulation of GH secretion in words (Growth Hormone secretion): potently stimulated GH secretion

Compound: YaDAIFTAC(Peg-2K)YROVLAQLSAROALQDILS(Har)-NH2 (Y[dA]DAIFTAC(PEG 2 kDa)YR[Orn]VLAQLSAR[Orn]ALQDILS[hArg]-NH2) [Analog 10 (C9), Cys9 conjugated to about 2 kDa PEG, Har29]
fold more potent than the 5K and 40K Pegylated GHRH peptides (analogs 15 and 16) (human GHRH receptor; Table 3 experiment): 2-6 fold
fold more potent than the native peptide (human GHRH receptor; Table 3 experiment): ~14 fold

Compound: CC[C@H](C)[C@H](NC(=O)[C@H](C)NC(=O)[C@H](CC(=O)O)NC(=O)[C@H](C)NC(=O)[C@@H](N)Cc1ccc(O)cc1)C(=O)N[C@@H](Cc1ccccc1)C(=O)N[C@H](C(=O)N[C@@H](CC(N)=O)C(=O)N[C@@H](CO)C(=O)N[C@@H](Cc1ccc(O)cc1)C(=O)N[C@@H](CCCNC(=N)N)C(=O)N[C@@H](CCCCN)C(=O)N[C@H](C(=O)N[C@@H](CC(C)C)C(=O)NCC(=O)N[C@@H](CCC(N)=O)C(=O)N[C@@H](CC(C)C)C(=O)N[C@@H](CO)C(=O)N[C@@H](C)C(=O)N[C@@H](CCCNC(=N)N)C(=O)N[C@@H](CCCCN)C(=O)N[C@@H](CC(C)C)C(=O)N[C@@H](CC(C)C)C(=O)N[C@@H](CCC(N)=O)C(=O)N[C@@H](CC(=O)O)C(=O)N[C@H](C(=O)N[C@@H](CCSC)C(=O)N[C@@H](CO)C(=O)N[C@@H](CCCNC(=N)N)C(N)=O)[C@@H](C)CC)C(C)C)[C@@H](C)O [GHRH1-29, reference compound]
Max. response(%) (compared to baseline) (human GHRH receptor; Table 3, independent experiment): 112.97%

Compound: YaDAIFTASYROVLAC(Peg-2K)LSAROALQDILSKN-NH2 (Y[dA]DAIFTASYR[Orn]VLAC(PEG 2 kDa)LSAR[Orn]ALQDILSKN-NH2) [Analog 9 (C16), Cys16 conjugated to about 2 kDa PEG]
potency in words (human GHRH receptor): reduced potency

Compound: YaDAIFTAC(Peg-5K)YROVLAQLSAROALQDILS(Har)-NH2 (Y[dA]DAIFTACYR[Orn]VLAQLSAR[Orn]ALQDILS[hArg]-NH2; not fully specified (residue 9); printed as YaDAIFTAC(Peg-5K)YROVLAQLSAROALQDILS(Har)-NH2) [Analog 15 (C9), Cys9 conjugated to 5K PEG, Har29]
in vitro biological activity in words (human GHRH receptor; Table 3 experiment): without loss of in vitro biological activity

Compound: YaDAIFTAC(Peg-40K)YROVLAQLSAROALQDILS(Har)-NH2 (Y[dA]DAIFTAC(PEG 40 kDa)YR[Orn]VLAQLSAR[Orn]ALQDILS[hArg]-NH2) [Analog 16 (C9), Cys9 conjugated to about 40 kDa PEG, Har29]
in vitro biological activity in words (human GHRH receptor; Table 3 experiment): without loss of in vitro biological activity

Further lines, with some results ahead:

potency in words (human GHRH receptor): reduced potency
Compound: YaDAIFTASYROVLAQLSC(Peg-2K)ROALQDILSKN-NH2 (Y[dA]DAIFTASYR[Orn]VLAQLSC(PEG 2 kDa)R[Orn]ALQDILSKN-NH2) [Analog 4 (C19), Cys19 conjugated to about 2 kDa PEG]

potency in words (human GHRH receptor): reduced potency
Compound: YaDAIFTASYROVLAQLSAROALQDC(Peg-2K)LSKN-NH2 (Y[dA]DAIFTASYR[Orn]VLAQLSAR[Orn]ALQDC(PEG 2 kDa)LSKN-NH2) [Analog 8 (C26), Cys26 conjugated to about 2 kDa PEG]

potency in words (human GHRH receptor): reduced potency
Compound: YaDAIFTC(Peg-2K)SYROVLAQLSAROALQDILSKN-NH2 (Y[dA]DAIFTC(PEG 2 kDa)SYR[Orn]VLAQLSAR[Orn]ALQDILSKN-NH2) [Analog 7 (C8), Cys8 conjugated to about 2 kDa PEG]
GH AUC (0-90 min) (Growth Hormone secretion): 15657 ng/ml/90 min

potency in words (human GHRH receptor): reduced potency
Compound: YaDAIFTASYROVLC(Peg-2K)QLSAROALQDILSKN-NH2 (Y[dA]DAIFTASYR[Orn]VLC(PEG 2 kDa)QLSAR[Orn]ALQDILSKN-NH2) [Analog 5 (C15), Cys15 conjugated to about 2 kDa PEG]
